Source: patent US20070270486

Biological target: T1, Myocilin tagged at its C-terminus with S-peptide, Q99972
T1 chain: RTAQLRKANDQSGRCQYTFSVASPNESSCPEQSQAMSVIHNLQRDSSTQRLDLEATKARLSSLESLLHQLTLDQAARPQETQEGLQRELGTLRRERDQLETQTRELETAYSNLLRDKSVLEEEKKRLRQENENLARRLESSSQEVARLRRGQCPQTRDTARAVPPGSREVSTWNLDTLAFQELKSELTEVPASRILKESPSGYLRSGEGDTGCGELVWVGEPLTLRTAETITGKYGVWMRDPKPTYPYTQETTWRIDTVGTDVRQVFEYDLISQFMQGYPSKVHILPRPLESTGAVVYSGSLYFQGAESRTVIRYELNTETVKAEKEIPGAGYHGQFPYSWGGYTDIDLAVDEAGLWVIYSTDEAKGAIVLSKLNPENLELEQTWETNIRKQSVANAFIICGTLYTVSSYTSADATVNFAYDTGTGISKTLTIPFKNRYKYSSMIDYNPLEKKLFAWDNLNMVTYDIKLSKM

B1: S-protein (protein)
chain: SSSNYCNQMMKSRNLTKDRCKPVNTFVHESLADVQAVCSQKNVACKNGQTNCYQSYSTMSITDCRETGSSKYPNCAYKTTQANKHIIVACEGNPYVPVHFDASV
B1 was tested, and the “RNAase analysis of culture medium (enzymatic recombination assay)” value was “the assay can detect secreted myocilin in less than 1 µl of media”.
